From paper doi:10.1101/2024.10.02.616340 (bioRxiv, 2024)

How the values were obtained:
[1] = target: yeast Mcm3 (subunit of CMG) (budding yeast, UniProt P24279 1-971); assay: cryo-EM structure
[2] = target: T1, yeast Mcm4 (subunit of CMG) (budding yeast, UniProt P30665 1-933); assay: cryo-EM structure
T1 sequence: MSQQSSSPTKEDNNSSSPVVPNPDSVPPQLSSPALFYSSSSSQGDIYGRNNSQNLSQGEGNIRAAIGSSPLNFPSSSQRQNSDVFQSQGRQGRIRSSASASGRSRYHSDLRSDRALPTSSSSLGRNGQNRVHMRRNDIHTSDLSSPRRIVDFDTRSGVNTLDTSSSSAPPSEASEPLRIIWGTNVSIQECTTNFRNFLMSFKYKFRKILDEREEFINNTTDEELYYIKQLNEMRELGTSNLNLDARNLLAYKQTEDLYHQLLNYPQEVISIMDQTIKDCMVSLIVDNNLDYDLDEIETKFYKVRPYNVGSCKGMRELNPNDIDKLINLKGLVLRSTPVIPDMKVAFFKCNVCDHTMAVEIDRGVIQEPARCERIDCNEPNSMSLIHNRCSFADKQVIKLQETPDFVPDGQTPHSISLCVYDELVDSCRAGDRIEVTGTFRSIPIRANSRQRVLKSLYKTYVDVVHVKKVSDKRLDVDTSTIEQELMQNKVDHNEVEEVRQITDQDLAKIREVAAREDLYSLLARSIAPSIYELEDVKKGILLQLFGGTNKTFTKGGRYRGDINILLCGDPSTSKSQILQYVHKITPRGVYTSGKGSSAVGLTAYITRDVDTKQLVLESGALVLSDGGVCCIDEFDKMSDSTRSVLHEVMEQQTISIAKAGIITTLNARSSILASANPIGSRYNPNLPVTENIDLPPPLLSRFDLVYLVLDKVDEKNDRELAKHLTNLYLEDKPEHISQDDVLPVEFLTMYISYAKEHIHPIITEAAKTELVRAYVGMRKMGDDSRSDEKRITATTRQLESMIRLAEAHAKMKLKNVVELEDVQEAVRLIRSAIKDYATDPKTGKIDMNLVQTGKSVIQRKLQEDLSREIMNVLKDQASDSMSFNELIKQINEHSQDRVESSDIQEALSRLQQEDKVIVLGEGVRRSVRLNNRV

Sequence of yeast Mcm3 (subunit of CMG) (P24279 whole entry): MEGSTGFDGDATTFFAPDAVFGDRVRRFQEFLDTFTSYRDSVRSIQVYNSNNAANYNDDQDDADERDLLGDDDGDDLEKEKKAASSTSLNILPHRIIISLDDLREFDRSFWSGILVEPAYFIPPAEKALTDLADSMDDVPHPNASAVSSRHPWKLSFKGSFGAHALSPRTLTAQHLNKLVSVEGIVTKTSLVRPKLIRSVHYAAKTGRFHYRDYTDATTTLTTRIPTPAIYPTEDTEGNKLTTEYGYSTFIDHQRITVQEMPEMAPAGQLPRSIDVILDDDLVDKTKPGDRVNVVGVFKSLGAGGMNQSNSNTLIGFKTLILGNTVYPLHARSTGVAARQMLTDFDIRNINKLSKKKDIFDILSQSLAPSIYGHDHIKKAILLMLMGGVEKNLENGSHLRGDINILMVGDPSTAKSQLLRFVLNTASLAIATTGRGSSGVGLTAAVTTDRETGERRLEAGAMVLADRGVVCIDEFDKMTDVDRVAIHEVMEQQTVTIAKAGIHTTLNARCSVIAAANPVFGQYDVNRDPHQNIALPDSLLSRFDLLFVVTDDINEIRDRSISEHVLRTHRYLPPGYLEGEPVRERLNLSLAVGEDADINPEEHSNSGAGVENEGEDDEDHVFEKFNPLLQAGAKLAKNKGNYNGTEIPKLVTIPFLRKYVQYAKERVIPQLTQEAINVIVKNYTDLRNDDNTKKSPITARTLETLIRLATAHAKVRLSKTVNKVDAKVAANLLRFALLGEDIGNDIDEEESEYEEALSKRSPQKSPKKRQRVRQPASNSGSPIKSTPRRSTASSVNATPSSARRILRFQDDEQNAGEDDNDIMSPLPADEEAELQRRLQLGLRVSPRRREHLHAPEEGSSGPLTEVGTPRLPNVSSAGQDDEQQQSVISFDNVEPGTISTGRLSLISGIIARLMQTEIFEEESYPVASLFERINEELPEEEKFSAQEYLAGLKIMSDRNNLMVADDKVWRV

binding result [1]: binds | binding result [2]: binds
B1: yeast Mcm7 (subunit of CMG) (natural protein)
chain: MSAALPSIQLPVDYNNLFNEITDFLVTFKQDTLSSDATRNENEDENLDAENIEQHLLEKGPKYMAMLQKVANRELNSVIIDLDDILQYQNEKFLQGTQADDLVSAIQQNANHFTELFCRAIDNNMPLPTKEIDYKDDVLDVILNQRRLRNERMLSDRTNEIRSENLMDTTMDPPSSMNDALREVVEDETELFPPNLTRRYFLYFKPLSQNCARRYRKKAISSKPLSVRQIKGDFLGQLITVRGIITRVSDVKPAVEVIAYTCDQCGYEVFQEVNSRTFTPLSECTSEECSQNQTKGQLFMSTRASKFSAFQECKIQELSQQVPVGHIPRSLNIHVNGTLVRSLSPGDIVDVTGIFLPAPYTGFKALKAGLLTETYLEAQFVRQHKKKFASFSLTSDVEERVMELITSGDVYNRLAKSIAPEIYGNLDVKKALLLLLVGGVDKRVGDGMKIRGDINVCLMGDPGVAKSQLLKAICKISPRGVYTTGKGSSGVGLTAAVMKDPVTDEMILEGGALVLADNGICCIDEFDKMDESDRTAIHEVMEQQTISISKAGINTTLNARTSILAAANPLYGRYNPRLSPLDNINLPAALLSRFDILFLMLDIPSRDDDEKLAEHVTYVHMHNKQPDLDFTPVEPSKMREYIAYAKTKRPVMSEAVNDYVVQAYIRLRQDSKREMDSKFSFGQATPRTLLGIIRLSQALAKLRLADMVDIDDVEEALRLVRVSKESLYQETNKSKEDESPTTKIFTIIKKMLQETGKNTLSYENIVKTVRLRGFTMLQLSNCIQEYSYLNVWHLINEGNTLKFVDDGTMDTDQEDSLVSTPKLAPQTTASANVSAQDSDIDLQDA
